Results published in patent US20020142982A1 (published 2002).

Target: T1, beta-catenin (endogenous, HUVEC) (human (HUVEC), UniProt P35222 2-781)
T1 construct: also called β-catenin
T1 sequence (looked up): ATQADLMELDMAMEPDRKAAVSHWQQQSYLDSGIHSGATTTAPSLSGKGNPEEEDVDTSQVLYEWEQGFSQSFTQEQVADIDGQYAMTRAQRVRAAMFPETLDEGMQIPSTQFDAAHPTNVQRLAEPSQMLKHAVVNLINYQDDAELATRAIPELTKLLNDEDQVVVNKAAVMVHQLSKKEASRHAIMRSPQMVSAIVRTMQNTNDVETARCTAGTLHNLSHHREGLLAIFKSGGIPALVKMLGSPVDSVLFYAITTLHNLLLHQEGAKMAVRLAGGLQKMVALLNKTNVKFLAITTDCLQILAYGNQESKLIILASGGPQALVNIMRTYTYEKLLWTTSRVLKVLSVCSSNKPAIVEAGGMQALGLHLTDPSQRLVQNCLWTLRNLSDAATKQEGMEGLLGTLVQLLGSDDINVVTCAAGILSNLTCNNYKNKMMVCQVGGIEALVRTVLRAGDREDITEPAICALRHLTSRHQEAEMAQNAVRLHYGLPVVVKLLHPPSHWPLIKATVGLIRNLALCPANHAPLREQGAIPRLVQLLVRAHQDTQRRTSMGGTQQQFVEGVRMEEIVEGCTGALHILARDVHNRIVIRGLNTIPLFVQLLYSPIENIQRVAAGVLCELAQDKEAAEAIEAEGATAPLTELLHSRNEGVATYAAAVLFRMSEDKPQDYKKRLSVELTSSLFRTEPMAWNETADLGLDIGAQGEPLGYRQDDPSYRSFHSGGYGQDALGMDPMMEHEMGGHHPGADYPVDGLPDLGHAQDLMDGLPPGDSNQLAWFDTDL
Test: co-immunoprecipitation of 35S-labelled, DSP cross-linked detergent-insoluble HUVEC extracts
Procedure: HUVEC were labeled to steady state with ^35Smethionine (250 μCi/mL, NEN DuPont) for 24 hours. After stimulation with 500 nM SPP for 1 hour, cells were fractionated with 0.5% TX-100. After centrifugation (15,000 g, 15 minutes), the protein complexes in detergent-insoluble fractions were cross-linked with 0.5 mM Dithiobis[succinimidyl propionate] (DSP; Pierce Chemical Co., Rockford, Ill.) (Hinck, L., J. Cell Biol. 125: 1327-1340 (1994)), and extracted with 1% TX-100-1% SDS as described above. Cell extracts were then immunoprecipitated with antibodies to VE cadherin, β-catenin, γ-catenin, or p120 Src (p120^cas, Transduction Laboratories). The immunoprecipitated complexes were then reduced by incubating in sample buffer containing 2% β-mercaptoethanol at 95° C. for 10 minutes, 10 μL dithiothreitol (1 M) was added to each gel lanes before protein separation by SDS-PAGE.

binding result: no binding
B1: gamma-catenin (endogenous, HUVEC) (other, human (HUVEC), UniProt P14923 1-745, looked up)
chain: MEVMNLMEQPIKVTEWQQTYTYDSGIHSGANTCVPSVSSKGIMEEDEACGRQYTLKKTTTYTQGVPPSQGDLEYQMSTTARAKRVREAMCPGVSGEDSSLLLATQVEGQATNLQRLAEPSQLLKSAIVHLINYQDDAELATRALPELTKLLNDEDPVVVTKAAMIVNQLSKKEASRRALMGSPQLVAAVVRTMQNTSDLDTARCTTSILHNLSHHREGLLAIFKSGGIPALVRMLSSPVESVLFYAITTLHNLLLYQEGAKMAVRLADGLQKMVPLLNKNNPKFLAITTDCLQLLAYGNQESKLIILANGGPQALVQIMRNYSYEKLLWTTSRVLKVLSVCPSNKPAIVEAGGMQALGKHLTSNSPRLVQNCLWTLRNLSDVATKQEGLESVLKILVNQLSVDDVNVLTCATGTLSNLTCNNSKNKTLVTQNSGVEALIHAILRAGDKDDITEPAVCALRHLTSRHPEAEMAQNSVRLNYGIPAIVKLLNQPNQWPLVKATIGLIRNLALCPANHAPLQEAAVIPRLVQLLVKAHQDAQRHVAAGTQQPYTDGVRMEEIVEGCTGALHILARDPMNRMEIFRLNTIPLFVQLLYSSVENIQRVAAGVLCELAQDKEAADAIDAEGASAPLMELLHSRNEGTATYAAAVLFRISEDKNPDYRKRVSVELTNSLFKHDPAAWEAAQSMIPINEPYGDDMDATYRPMYSSDVPLDPLEMHMDMDGDYPIDTYSDGLRPPYPTADHMLA
notes: also called γ-catenin
